Reference: article PMC12894433

System: dCas9 (EnGen Spy dCas9, SNAP-tag) (Streptococcus pyogenes)
Experiment: single-molecule fluorescence co-localization
Details: NEBuffer r3.1 adjusted to 1 mM MgCl2; single-molecule: 17 nM YOYO-1, 1 ng DNA, about 1 nM dCas9-RNA, 15 min at 37 C; EMSA: 1 mM DTT, 1% agarose 1x TAE gel

Row | Substance | binding signal (% co-localization)
1 | AAV2-ITR crRNA:tracrRNA-ATTO550 guide + pAAV-U6-sgRNA-CMV-GFP plasmid (positive) | 51
2 | AAV2-ITR crRNA:tracrRNA-ATTO550 guide + plasmid lacking the target site (negative) | 23
